Assay results reported in US12018066 (TRIAD NATIONAL SECURITY, dated 2024).
“And” between values parts separate entries of the source, which are not always exact repeats. Equal values may be shown once.

B1: B04 IgG1 (antibody, V domains shown)
VH: QVQLVESGAEVKKPGASVKVSCKASGYTFTRYYMHWVRQAPGQGLEWMGIINPSGGTTSYAQKFQGRVTMTRDTSTSTVYMELSSLRSEDTAVYYCARSFGELTSFDYWGQGTLVTVSS
VL: SYVLTQPPSVSVAPGKTARITCGGNNIGIRSVHWYQQKPGQAPVLVIYYDSDRPSGIPERFSGSKSGNTATLTISRVEAGDEADYYCQVWDSSSDHPVFGGGTKLTVL
B2: G07 IgG1 (antibody, V domains shown)
VH: QVQLVQSGAEVKKPGESLKISCKGSGYSFTSYWIGWVRQMPGKGLEWMGIIYPGDSDIRYSPSFQGQVTISADKSFSSAYLQWSSLKASDTAMYYCARLGATGAFDIWGQGTTVTVSS
VL: QSVLIQPPSASGTPGQRVTISCSGSNSNFGSNSVSWYQQRPGTAPKLLIEGNNQRPSGVPERFSGSKSGTSASLAISGLQSEDEAEYSCASWDDSLNAFVFGPGTKLTVL
B3: S01 IgG1 (antibody, V domains shown)
VH: QVQLVESGGGLVKPGGSLRLSCAASGFTVGSNYMSWVRQAPGKGLEWVSVIYSGGSTYYADSVKGRFTISRDNSKNTLYLQMNSLRAEDTAVYYCARGSSGAWYFDLWGRGTLVTVSS
VL: EIVMTQSPSSLSASVGDSVTITCQASQDISNYLNWYQQKPGKAPKLLIYDASNLETGVPSRFSGGGSGTDFTLTITSLQPEDIATYYCQQYDNFPPTFGPGTKVDIK
notes: also called 501
B4: E01 IgG1 (antibody, V domains shown)
VH: QVQLQQWGAGLLKPSETLSLKCAVYGGSFSGYYWGWIRQSTGKGLEWIGEINRSGSTNYNPSLKSRVTISVDTSKNQFSLKLSSVTAADTAVYYCARGGARYYYGSGSYRSTPRPYYFDYWGQGTLVTVSS
VL: SYELTQPPSVSVAPGETARITCGGDNIGRRHVHWYQQKPGQAPVLVIYDDSDRPSGIPDRFSGSNSGNTATLTIGRVEAGDEADYYCQVWGSSNDPHVFGTGTKLTVL
notes: also called E1
B5: F07 minibody (scFv-Fc) (Fc fusion)
chain: SYVLTQPPSVSVAPGQTARITCGGNNIGSKSVHWYQQKPGQAPVLVVYDDSDRPSGIPERFSGSNSGNTATLIISRVEAGDEADYYCQVWDSSSVHYVFGTGTKLTVLSGGSTITSYNVYYTKLSSSGTQVQLVQSGAEVKKPGSSVRVSCKVSGYTFTGYYMHWVRQAPGQGLEWMGIINPSGGSTSYAQKFQGRVTMTRDTSTSTVYMELSSLRSEDTAVYYCARVRVGASDAFDIWGQGTMVTVSS
B6: E01 minibody (scFv-Fc) (Fc fusion)
chain: SYELTQPPSVSVAPGETARITCGGDNIGRRHVHWYQQKPGQAPVLVIYDDSDRPSGIPDRFSGSNSGNTATLTIGRVEAGDEADYYCQVWGSSNDPHVFGTGTKLTVLSGGSTITSNNVYYTKLSSSGTQVQLQQWGAGLLKPSETLSLKCAVYGGSFSGYYWGWIRQSTGKGLEWIGEINRSGSTNYNPSLKSRVTISVDTSKNQFSLKLSSVTAADTAVYYCARGGARYYYGSGSYRSTPRPYYFDYWGQGTLVTVSS
notes: also called E1
B7: S01 minibody (scFv-Fc) (Fc fusion)
chain: EIVMTQSPSSLSASVGDSVTITCQASQDISNYLNWYQQKPGKAPKLLIYDASNLETGVPSRFSGGGSGTDFTLTITSLQPEDIATYYCQQYDNFPPTFGPGTKVDIKSGGSTITSYNVYYTKLSSSDTQVQLVESGGGLVKPGGSLRLSCAASGFTVGSNYMSWVRQAPGKGLEWVSVIYSGGSTYYADSVKGRFTISRDNSKNTLYLQMNSLRAEDTAVYYCARGSSGAWYFDLWGRGTLVTVSS
notes: also called 501

Molecular target: T1, human ACE2 receptor on HEK cells (Human ACE2 293 cell line) (human, UniProt Q9BYF1 18-805)
T1 construct: whole, on cells; also called HEK-ACE2; ACE2 293 cells
T1 sequence (Q9BYF1 18-805): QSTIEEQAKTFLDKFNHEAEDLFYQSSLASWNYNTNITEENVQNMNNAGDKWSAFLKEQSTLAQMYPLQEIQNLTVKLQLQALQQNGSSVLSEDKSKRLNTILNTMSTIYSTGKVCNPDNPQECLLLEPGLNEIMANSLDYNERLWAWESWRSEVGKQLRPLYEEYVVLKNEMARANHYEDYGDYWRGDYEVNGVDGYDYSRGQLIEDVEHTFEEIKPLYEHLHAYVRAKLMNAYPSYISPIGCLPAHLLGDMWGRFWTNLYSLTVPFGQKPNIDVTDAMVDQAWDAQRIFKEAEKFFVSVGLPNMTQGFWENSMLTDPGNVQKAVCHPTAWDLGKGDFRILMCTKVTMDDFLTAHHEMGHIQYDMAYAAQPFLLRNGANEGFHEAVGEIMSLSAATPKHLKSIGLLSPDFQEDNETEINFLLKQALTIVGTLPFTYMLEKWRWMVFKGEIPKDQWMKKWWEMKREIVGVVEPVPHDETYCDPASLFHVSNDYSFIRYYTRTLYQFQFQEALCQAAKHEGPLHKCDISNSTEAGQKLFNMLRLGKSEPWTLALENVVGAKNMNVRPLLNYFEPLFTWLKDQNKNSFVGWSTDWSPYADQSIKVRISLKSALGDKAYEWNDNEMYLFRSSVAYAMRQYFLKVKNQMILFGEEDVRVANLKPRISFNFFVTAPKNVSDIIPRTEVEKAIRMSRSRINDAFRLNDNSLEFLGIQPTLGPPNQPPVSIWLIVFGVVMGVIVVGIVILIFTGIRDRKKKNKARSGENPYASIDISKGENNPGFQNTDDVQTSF
Test: fluorescence microscopy, PE-labelled IgG on HEK-ACE2 cells without RBD2-sfGFP

Binder	binding result
B1	no binding (tested: 1 ug/mL)
B2	no binding (tested: 1 ug/mL)
B3	no binding (tested: 1 ug/mL)

Molecular target: T2, SARS-CoV-2 spike protein receptor binding domain (RBD2) (SARS-CoV-2, UniProt P0DTC2 319-537)
Test: not given

Binder	Kd [nM]
B2	246
B3	174
B4	90

Molecular target: T2, SARS-CoV-2 spike protein receptor …
Test: SPR sandwich binning, ligand E01

Binder	normalized analyte binding to RBD2 held by the immobilized ligand
B1	-0.15
B2	1.57
B3	-0.13
B4	-0.07

Molecular target: T2, SARS-CoV-2 spike protein receptor …
Test: SPR sandwich binning, ligand Anti-His

Binder	normalized analyte binding to RBD2 held by the immobilized ligand
B1	1.68
B2	0.92
B3	1
B4	2

Molecular target: T2, SARS-CoV-2 spike protein receptor …
Test: SPR sandwich binning, ligand S01

Binder	normalized analyte binding to RBD2 held by the immobilized ligand
B1	-0.59
B3	-0.03
B4	0.03

Molecular target: T2, SARS-CoV-2 spike protein receptor …
Test: SPR sandwich binning, ligand G07

Binder	normalized analyte binding to RBD2 held by the immobilized ligand
B1	-0.07
B2	-0.05
B4	2.43

Molecular target: T2, SARS-CoV-2 spike protein receptor …
Test: SPR sandwich binning, ligand E08

Binder	normalized analyte binding to RBD2 held by the immobilized ligand
B1	2.24
B2	1.86
B3	1.79
B4	2.33

Molecular target: T2, SARS-CoV-2 spike protein receptor …
Test: not given
Remark: another data set of the same source

Binder	Kd [nM]
B1	208

Molecular target: T2, SARS-CoV-2 spike protein receptor …
Test: SPR sandwich binning, ligand F07

Binder	normalized analyte binding to RBD2 held by the immobilized ligand
B1	0.05
B2	0.08
B3	0.48
B4	0.62

Molecular target: SARS-CoV spike protein receptor binding domain (RBD1) (SARS-CoV, UniProt P59594 306-527)
Test: ELISA, minibodies (FIG. 6)

Binder	binding result
B5	no binding
B6	no binding
B7	no binding

Molecular target: T2, SARS-CoV-2 spike protein receptor …
Test: SPR sandwich binning, ligand NN54

Binder	normalized analyte binding to RBD2 held by the immobilized ligand
B1	2.5
B2	1.73
B3	1.64
B4	2.78

Molecular target: T2, SARS-CoV-2 spike protein receptor …
Test: SPR sandwich binning, ligand H01

Binder	normalized analyte binding to RBD2 held by the immobilized ligand
B1	0.71
B2	0.94
B3	-0.03
B4	2.35

Molecular target: T2, SARS-CoV-2 spike protein receptor …
Test: SPR sandwich binning, ligand CR3022

Binder	normalized analyte binding to RBD2 held by the immobilized ligand
B1	2.22
B2	1.56
B3	1.39
B4	2.39

Molecular target: T2, SARS-CoV-2 spike protein receptor …
Test: SPR, immobilized antibody, RBD injected, 1:1 fit

Binder	Kd [nM]
B1	210
B2	320
B3	170
B5	61.5
B6	21.5
B4	90

Molecular target: T2, SARS-CoV-2 spike protein receptor …
Test: SPR, IgG

Binder	Kd
B1	100 nM and 300 nM
B2	2000 nM
B4	48 nM

Molecular target: T2, SARS-CoV-2 spike protein receptor …
Test: SPR sandwich binning, ligand B04

Binder	normalized analyte binding to RBD2 held by the immobilized ligand
B1	-0.11
B2	-0.03
B3	0.06
B4	-0.09

Molecular target: T2, SARS-CoV-2 spike protein receptor …
Test: SPR sandwich binning, ligand H05

Binder	normalized analyte binding to RBD2 held by the immobilized ligand
B1	1.87
B2	1.03
B3	1.2
B4	2.18

Molecular target: SARS-CoV-2 spike protein on whole SARS-CoV-2 virus (SARS-CoV-2, UniProt P0DTC2 14-1273)
Test: cell-based or functional assay

Binder	NT50 (nM), half neutralization titer [nM]	Nmax (%), neutralization maximum [%]
B1	56.7	53.3
B3	14.6	106
B4	6.4	104

Molecular target: T2, SARS-CoV-2 spike protein receptor …
Test: SPR

Binder	Kd [nM]
B1	210
B2	320
B3	170
B5	61.5
B6	21.5
B4	90
B7	22700
